Laboratory results from article PMC6448830 (PLoS Pathogens, 2019).

T1: human 2B4-Fc fusion protein (human, UniProt Q9BZW8 22-229)
T1 construct: also called h2B4-Fc; h2B4
T1 sequence: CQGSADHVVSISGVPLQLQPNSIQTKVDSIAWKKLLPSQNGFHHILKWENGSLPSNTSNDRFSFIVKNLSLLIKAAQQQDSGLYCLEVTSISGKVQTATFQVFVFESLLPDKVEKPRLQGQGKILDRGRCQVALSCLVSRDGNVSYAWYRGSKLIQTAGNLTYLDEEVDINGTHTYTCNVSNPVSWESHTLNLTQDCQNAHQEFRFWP


Assays:
[1] = target: T1, human 2B4-Fc fusion protein; test: SPR; conditions: both partners purified
[2] = target: T2, A. trivirgatus 2B4-Fc fusion protein (Aotus trivirgatus); test: SPR; conditions: both partners purified
T2 construct: also called host 2B4-Fc; aoCD244-Fc

Binder	Kd [1] [nM]	fold higher affinity than hCD48 [1] [fold]	fold slower dissociation than hCD48 [1] [fold]	koff [1] [s⁻¹]	kon [1] [M⁻¹ s⁻¹]	Kd [2] [nM]	fold slower dissociation than host CD48 [2] [fold]	koff [2] [s⁻¹]	kon [2] [M⁻¹ s⁻¹]
A43-Fc fusion protein (Fc fusion, Wild-type viral ectodomain. The human IgG1 Fc carrier (dimerising) and CD33 leader are left out. The C-terminal limit follows from the printed membrane-proximal region 214-225, so Ig2 ends at …) VNIVNALVGGNITLNISESLPENVREITWFCTYDQKIADWDVKRLKYFDNKFKGRVRLDSQSGALYLSRVQKEDANIYIMRVLKDTMFEQDWKIRLQVFDEVDTPNITLVNTTLISDTCYVNFSCSHHDSLCYTSNENCTWYHFSQNITKTPPWNHSASSNSCYTCEFKNPVHRKNITMCISGCGQT	3.6	6	55	0.000405	169000	1.3	2.6	0.000188	116000
A. trivirgatus CD48-Fc fusion protein (Fc fusion, biotin (biotinylated host CD48-Fc in the blocking ELISA)) TSIQGNSVDVINAISGGNVTLNISESLPENVREITWFCTYHQKIADWDVKRLKYFDNKFKGRVRLDYQSGALYISKIQKEDANIYIMRVLKETMYEQEWKIRLQVFDPVPKPDIKIEKTAKVEDDCYLKLSCVIPDESVNYTWYGDKEPFPKEFQSGVLETTLKSQDYSRCYTCQVSNPVSSKNDTVCFS						3.3			
